From US20050249730A1 (PIERRE FABRE MEDICAMENT, published 2005) come the findings set out here.

This experiment deals with T1, insulin receptor isoform A (IR-A) from lysates of R-/IR-A cells (UniProt P06213-2 28-1370).
T1 construct: Whole receptor in the lysate of R- fibroblasts stably transfected with IR-A cDNA
As to the kind of experiment: immunoprecipitation from R-/IR-A cell lysate, SDS-PAGE, immunoblot with anti-IR beta-subunit. For orientation: In western blotting, separated proteins are transferred to a membrane and probed.

T1 sequence (P06213 other isoform, or with tags, fused parts or gaps limits assumed): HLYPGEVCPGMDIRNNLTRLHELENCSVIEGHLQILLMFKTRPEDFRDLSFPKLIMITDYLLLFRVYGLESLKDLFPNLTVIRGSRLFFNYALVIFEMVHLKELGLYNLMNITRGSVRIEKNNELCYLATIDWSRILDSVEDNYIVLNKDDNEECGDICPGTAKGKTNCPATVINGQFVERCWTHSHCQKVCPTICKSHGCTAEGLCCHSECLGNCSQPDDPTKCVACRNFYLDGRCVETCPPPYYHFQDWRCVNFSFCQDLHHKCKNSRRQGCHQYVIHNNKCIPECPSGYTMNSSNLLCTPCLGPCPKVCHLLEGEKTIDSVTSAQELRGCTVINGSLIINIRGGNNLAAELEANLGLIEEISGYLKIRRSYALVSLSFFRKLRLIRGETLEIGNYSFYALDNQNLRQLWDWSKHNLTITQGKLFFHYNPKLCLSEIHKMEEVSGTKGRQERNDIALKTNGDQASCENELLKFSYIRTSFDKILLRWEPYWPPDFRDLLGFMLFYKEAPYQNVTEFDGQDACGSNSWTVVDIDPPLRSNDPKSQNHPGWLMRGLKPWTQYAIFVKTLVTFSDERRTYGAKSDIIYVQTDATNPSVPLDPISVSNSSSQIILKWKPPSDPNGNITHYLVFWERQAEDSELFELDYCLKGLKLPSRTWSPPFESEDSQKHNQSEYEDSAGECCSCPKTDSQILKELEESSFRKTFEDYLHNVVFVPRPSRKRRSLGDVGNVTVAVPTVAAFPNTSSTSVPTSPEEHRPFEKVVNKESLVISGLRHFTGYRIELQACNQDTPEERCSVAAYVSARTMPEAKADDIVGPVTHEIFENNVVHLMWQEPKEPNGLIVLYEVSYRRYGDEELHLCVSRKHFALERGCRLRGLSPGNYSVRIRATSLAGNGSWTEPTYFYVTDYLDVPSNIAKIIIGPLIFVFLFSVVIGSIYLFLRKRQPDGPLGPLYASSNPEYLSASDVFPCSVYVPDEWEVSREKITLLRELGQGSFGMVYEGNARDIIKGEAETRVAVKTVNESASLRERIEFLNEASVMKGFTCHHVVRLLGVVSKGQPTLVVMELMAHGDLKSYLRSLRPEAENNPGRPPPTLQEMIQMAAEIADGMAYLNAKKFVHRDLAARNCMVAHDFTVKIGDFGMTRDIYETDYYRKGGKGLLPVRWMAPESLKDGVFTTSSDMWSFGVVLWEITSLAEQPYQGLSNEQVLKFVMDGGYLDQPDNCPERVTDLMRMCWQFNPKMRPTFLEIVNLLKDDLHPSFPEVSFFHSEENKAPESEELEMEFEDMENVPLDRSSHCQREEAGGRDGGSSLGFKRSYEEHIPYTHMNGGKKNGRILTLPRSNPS

B1: humanized antibody h7C10 (humanized form 1 of 7C10: humanized 7C10 VH 1 with humanized 7C10 VL 1) (antibody, V domains shown)
VH: QVQLQESGPGLVKPSETLSLTCTVSGYSITGGYLWNWIRQPPGKGLEWMGYISYDGTNNYKPSLKDRITISRDTSKNQFSLKLSSVTAADTAVYYCARYGRVFFDYWGQGTLVTVSS
VL: DVVMTQSPLSLPVTPGEPASISCRSSQSIVHSNGNTYLQWYLQKPGQSPQLLIYKVSNRLYGVPDRFSGSGSGTDFTLKISRVEAEDVGVYYCFQGSHVPWTFGQGTKVEIK
notes: Human IgG1/kappa; also called 7H2HM; A2CHM
With B1, the binding result is given as “no binding”.
